According to patent publication US20210388087A1 (Chugai, published 2021):
Residue numbers refer to the chain shown, from its start. Blank lines part the entries; values can stand above or below the binder they belong to.

Target: T1, CD3 epsilon homodimer protein (UniProt P07766 23-126)
T1 construct: also called CD3 (CD3 epsilon)
Assay: SPR Biacore T200, CD3e homodimer on chip, vs unaltered GLS3000 antibody

T1 sequence (P07766 23-126): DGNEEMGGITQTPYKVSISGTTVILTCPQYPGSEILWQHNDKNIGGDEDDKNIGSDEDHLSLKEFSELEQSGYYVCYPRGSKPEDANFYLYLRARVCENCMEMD

ratio of amounts bound (Z=Y/X): 0.71
B1: GLS3000 L27bS (antibody, name in Kabat numbering, V domains shown)
VH: QVQLVESGGGVVQPGRSLRLSCAASGFTFSNAWMHWVRQAPGKGLEWVAQIKAKSNNYATYYAESVKGRFTISRDDSKNSLYLQMNSLKTEDTAVYYCRYVHYGAYYGVDAWGQGTTVTVSS
VL: DIVMTQSPLSLPVTPGEPASISCRSSQSSVHSNRNTYLHWYQQKPGQAPRLLIYKVSNRFSGVPDRFSGSGSGTDFTLKISRVEAEDVGVYYCGQGTQVPYTFGQGTKLEIK
notes: one-arm IgG as m2

ratio of amounts bound (Z=Y/X): 0.19
B2: GLS3000 N28D (antibody, name in Kabat numbering, V domains shown)
VH: B1 VH
VL: B1 VL with S29L, N33D
notes: one-arm IgG as m2

ratio of amounts bound (Z=Y/X): 1.65
B3: GLS3000 N30K (antibody, name in Kabat numbering, V domains shown)
VH: B1 VH
VL: B1 VL with S29L, N35K
notes: one-arm IgG as m2

ratio of amounts bound (Z=Y/X): 0.39
B4: GLS3000 N28L (antibody, name in Kabat numbering, V domains shown)
VH: B1 VH
VL: B1 VL with S29L, N33L
notes: one-arm IgG as m2

ratio of amounts bound (Z=Y/X): 0.36
B5: GLS3000 N28P (antibody, name in Kabat numbering, V domains shown)
VH: B1 VH
VL: B1 VL with S29L, N33P
notes: one-arm IgG as m2

ratio of amounts bound (Z=Y/X): 0.29
B6: GLS3000 N30S (antibody, name in Kabat numbering, V domains shown)
VH: B1 VH
VL: B1 VL with S29L, N35S
notes: one-arm IgG as m2

ratio of amounts bound (Z=Y/X): 1.05
B7: GLS3000 L33V (antibody, name in Kabat numbering, V domains shown)
VH: B1 VH
VL: B1 VL with S29L, L38V
notes: one-arm IgG as m2

ratio of amounts bound (Z=Y/X): 1.12
B8: GLS3000 L27bV (antibody, name in Kabat numbering, V domains shown)
VH: B1 VH
VL: B1 VL with S29V
notes: one-arm IgG as m2

ratio of amounts bound (Z=Y/X): 0.37
B9: GLS3000 N28Q (antibody, name in Kabat numbering, V domains shown)
VH: B1 VH
VL: B1 VL with S29L, N33Q
notes: one-arm IgG as m2

ratio of amounts bound (Z=Y/X): 0.26
B10: GLS3000 N28Y (antibody, name in Kabat numbering, V domains shown)
VH: B1 VH
VL: B1 VL with S29L, N33Y
notes: one-arm IgG as m2

ratio of amounts bound (Z=Y/X): 1.86
B11: GLS3000 N30R (antibody, name in Kabat numbering, V domains shown)
VH: B1 VH
VL: B1 VL with S29L, N35R
notes: one-arm IgG as m2

ratio of amounts bound (Z=Y/X): 0.78
B12: GLS3000 L33F (antibody, name in Kabat numbering, V domains shown)
VH: B1 VH
VL: B1 VL with S29L, L38F
notes: one-arm IgG as m2

ratio of amounts bound (Z=Y/X): 0.44
B13: GLS3000 N28K (antibody, name in Kabat numbering, V domains shown)
VH: B1 VH
VL: B1 VL with S29L, N33K
notes: one-arm IgG as m2

ratio of amounts bound (Z=Y/X): 0.44
B14: GLS3000 N30E (antibody, name in Kabat numbering, V domains shown)
VH: B1 VH
VL: B1 VL with S29L, N35E
notes: one-arm IgG as m2

ratio of amounts bound (Z=Y/X): 0.41
B15: GLS3000 N28W (antibody, name in Kabat numbering, V domains shown)
VH: B1 VH
VL: B1 VL with S29L, N33W
notes: one-arm IgG as m2

ratio of amounts bound (Z=Y/X): 0.36
B16: GLS3000 N28V (antibody, name in Kabat numbering, V domains shown)
VH: B1 VH
VL: B1 VL with S29L, N33V
notes: one-arm IgG as m2

ratio of amounts bound (Z=Y/X): 0.87
B17: GLS3000 N30Q (antibody, name in Kabat numbering, V domains shown)
VH: B1 VH
VL: B1 VL with S29L, N35Q
notes: one-arm IgG as m2

ratio of amounts bound (Z=Y/X): 0.29
B18: GLS3000 N30T (antibody, name in Kabat numbering, V domains shown)
VH: B1 VH
VL: B1 VL with S29L, N35T
notes: one-arm IgG as m2

ratio of amounts bound (Z=Y/X): 0.25
B19: GLS3000 L27bY (antibody, name in Kabat numbering, V domains shown)
VH: B1 VH
VL: B1 VL with S29Y
notes: one-arm IgG as m2

ratio of amounts bound (Z=Y/X): 0.31
B20: GLS3000 N30P (antibody, name in Kabat numbering, V domains shown)
VH: B1 VH
VL: B1 VL with S29L, N35P
notes: one-arm IgG as m2

ratio of amounts bound (Z=Y/X): 1.1
B21: GLS3000 N30F (antibody, name in Kabat numbering, V domains shown)
VH: B1 VH
VL: B1 VL with S29L, N35F
notes: one-arm IgG as m2

ratio of amounts bound (Z=Y/X): 0.3
B22: GLS3000 L33P (antibody, name in Kabat numbering, V domains shown)
VH: B1 VH
VL: B1 VL with S29L, L38P
notes: one-arm IgG as m2

ratio of amounts bound (Z=Y/X): 0.85
B23: GLS3000 L33A (antibody, name in Kabat numbering, V domains shown)
VH: B1 VH
VL: B1 VL with S29L, L38A
notes: one-arm IgG as m2

ratio of amounts bound (Z=Y/X): 0.46
B24: GLS3000 N28F (antibody, name in Kabat numbering, V domains shown)
VH: B1 VH
VL: B1 VL with S29L, N33F
notes: one-arm IgG as m2

ratio of amounts bound (Z=Y/X): 0.34
B25: GLS3000 N30D (antibody, name in Kabat numbering, V domains shown)
VH: B1 VH
VL: B1 VL with S29L, N35D
notes: one-arm IgG as m2

ratio of amounts bound (Z=Y/X): 0.7
B26: GLS3000 N30L (antibody, name in Kabat numbering, V domains shown)
VH: B1 VH
VL: B1 VL with S29L, N35L
notes: one-arm IgG as m2

ratio of amounts bound (Z=Y/X): 0.99
B27: GLS3000 N30W (antibody, name in Kabat numbering, V domains shown)
VH: B1 VH
VL: B1 VL with S29L, N35W
notes: one-arm IgG as m2

ratio of amounts bound (Z=Y/X): 0.61
B28: GLS3000 N30V (antibody, name in Kabat numbering, V domains shown)
VH: B1 VH
VL: B1 VL with S29L, N35V
notes: one-arm IgG as m2

ratio of amounts bound (Z=Y/X): 0.72
B29: GLS3000 L33E (antibody, name in Kabat numbering, V domains shown)
VH: B1 VH
VL: B1 VL with S29L, L38E
notes: one-arm IgG as m2

ratio of amounts bound (Z=Y/X): 0.44
B30: GLS3000 N28I (antibody, name in Kabat numbering, V domains shown)
VH: B1 VH
VL: B1 VL with S29L, N33I
notes: one-arm IgG as m2

ratio of amounts bound (Z=Y/X): 0.4
B31: GLS3000 N28E (antibody, name in Kabat numbering, V domains shown)
VH: B1 VH
VL: B1 VL with S29L, N33E
notes: one-arm IgG as m2

ratio of amounts bound (Z=Y/X): 0.61
B32: GLS3000 N30I (antibody, name in Kabat numbering, V domains shown)
VH: B1 VH
VL: B1 VL with S29L, N35I
notes: one-arm IgG as m2

ratio of amounts bound (Z=Y/X): 0.32
B33: GLS3000 N28S (antibody, name in Kabat numbering, V domains shown)
VH: B1 VH
VL: B1 VL with S29L, N33S
notes: one-arm IgG as m2

ratio of amounts bound (Z=Y/X): 0.25
B34: GLS3000 N28A (antibody, name in Kabat numbering, V domains shown)
VH: B1 VH
VL: B1 VL with S29L, N33A
notes: one-arm IgG as m2

ratio of amounts bound (Z=Y/X): 0.26
B35: GLS3000 L27bW (antibody, name in Kabat numbering, V domains shown)
VH: B1 VH
VL: B1 VL with S29W
notes: one-arm IgG as m2

ratio of amounts bound (Z=Y/X): 0.46
B36: GLS3000 N28G (antibody, name in Kabat numbering, V domains shown)
VH: B1 VH
VL: B1 VL with S29L, N33G
notes: one-arm IgG as m2

ratio of amounts bound (Z=Y/X): 0.83
B37: GLS3000 L33I (antibody, name in Kabat numbering, V domains shown)
VH: B1 VH
VL: B1 VL with S29L, L38I
notes: one-arm IgG as m2

ratio of amounts bound (Z=Y/X): 0.45
B38: GLS3000 N28T (antibody, name in Kabat numbering, V domains shown)
VH: B1 VH
VL: B1 VL with S29L, N33T
notes: one-arm IgG as m2

ratio of amounts bound (Z=Y/X): 0.17
B39: GLS3000 L33D (antibody, name in Kabat numbering, V domains shown)
VH: B1 VH
VL: B1 VL with S29L, L38D
notes: one-arm IgG as m2

ratio of amounts bound (Z=Y/X): 0.98
B40: GLS3000 N30H (antibody, name in Kabat numbering, V domains shown)
VH: B1 VH
VL: B1 VL with S29L, N35H
notes: one-arm IgG as m2

ratio of amounts bound (Z=Y/X): 0.8
B41: GLS3000 N30M (antibody, name in Kabat numbering, V domains shown)
VH: B1 VH
VL: B1 VL with S29L, N35M
notes: one-arm IgG as m2

ratio of amounts bound (Z=Y/X): 0.5
B42: GLS3000 N30A (antibody, name in Kabat numbering, V domains shown)
VH: B1 VH
VL: B1 VL with S29L, N35A
notes: one-arm IgG as m2

ratio of amounts bound (Z=Y/X): 0.93
B43: GLS3000 L33M (antibody, name in Kabat numbering, V domains shown)
VH: B1 VH
VL: B1 VL with S29L, L38M
notes: one-arm IgG as m2

ratio of amounts bound (Z=Y/X): 0.47
B44: GLS3000 N30G (antibody, name in Kabat numbering, V domains shown)
VH: B1 VH
VL: B1 VL with S29L, N35G
notes: one-arm IgG as m2

ratio of amounts bound (Z=Y/X): 0.39
B45: GLS3000 N28M (antibody, name in Kabat numbering, V domains shown)
VH: B1 VH
VL: B1 VL with S29L, N33M
notes: one-arm IgG as m2

ratio of amounts bound (Z=Y/X): 0.42
B46: GLS3000 N28H (antibody, name in Kabat numbering, V domains shown)
VH: B1 VH
VL: B1 VL with S29L, N33H
notes: one-arm IgG as m2
